Patent publication US20090318342A1, “Compounds” (IMPERIAL INNOVATIONS LIMITED, priority 2005, published 2009)
Like-named read-outs stand apart in the source and are kept apart here.

Columns and labels:
[1] = system: aggrecanase activity in IL-1α- and retinoic acid-stimulated cartilage; assay: Aggrecanase-generated aggrecan fragments in cartilage conditioned media, Western analysis; format: cell-based; conditions: IL-1α- and retinoic acid-stimulated cartilage
Description: Aggrecan fragments released into the conditioned medium are deglycosylated by digestion with chondroitinase ABC and keratanase and the samples are subjected to SDS/PAGE and Western blotting analysis as described by Little et al.. The primary antibodies used to detect aggrecanase-generated and MMP-generated aggrecan fragments are BC-3 and BC-14, respectively. Antigen-antibody complexes are detected by anti-mouse AP-linked donkey antibody and the AP substrate.
Conditioned media from the above experiments were analyzed by monoclonal antibodies that recognize either the aggrecanase-generated aggrecan neoepitope ARGSV or the MMP-generated aggrecan neoepitope FFGVG. In concordance with GAG release, there was an increase in the amount of aggrecanase-generated aggrecan fragments released upon treatment with either stimulus, but no MMP-generated fragments were detected.

[2] = system: bovine nasal cartilage explants; assay: IL-1α-stimulated bovine nasal cartilage explants, GAG release; format: cell-based; conditions: 3 days
Protocol: GAG released into the conditioned media is measured in duplicate using a modification of the dimethylmethylene blue (DMMB) assay as described in Farndale et al.. Shark chondroitin sulfate (0-2.62 μg) is used as standard. The % of total GAG released into the medium is calculated as follows: % of total GAG released=(total GAG in the medium)/(total GAG in the medium+total GAG remaining in the cartilage).
Bovine nasal cartilage explants were stimulated with IL-1α in the presence or absence of N-TIMP-1, TIMP-2, or N-TIMP-3 for 3 days.

[3] = target: catalytic domain of membrane-type 1 MMP (MMP-14(CD)); conditions: Table I; data taken from ref. 27; read-out: Ki(app) MMP-14(CD); cited from earlier work
[4] = target: catalytic domain of membrane-type 1 MMP (MMP-14(CD)); assay: Enzyme inhibition kinetic study, MMP-14; format: biochemical; conditions: Table I; enzyme 5 nM; pH 7.5; read-out: Ki(app) MMP-14(CD)
Protocol: FIG. 2. Inhibition of MMP and TACE by N-TIMP-3 and its mutants. A. Inhibition of MMP-14(CD) by wild-type and mutated N-TIMP-3. Open circles, wild-type N-TIMP-3; closed circles, T2G; and open squares, -1A. B. Comparison of the inhibition of TACE by wild-type N-TIMP-3, N-TIMP-1 and TAPI-2. The inhibitors were incubated with 0.5 nM TACE for 3 hr at room temperature, and the residual enzyme activity was measured with 10 μM Substrate III (R&D Systems). The assays were performed at pH 9.0 at a final NaCl concentration of 1 mM. Open circles, N-TIMP-3; closed circles, TAPI-2; and open squares, N-TIMP-1. C. Inhibition of TACE (0.5 nM) by wild-type and mutated N-TIMP-3. Open circles, wild-type inhibitor; closed circles, T2G; and open squares, -1A.
Enzyme inhibition kinetic studies—Inhibition kinetic studies for MMPs and TACE were carried out as described previously (19, 27) with modifications. Purified N-TIMP-3 and mutants were dialyzed against 20 mM Tris-HCl (pH 7.0), 50 mM NaCl containing 20% glycerol, centrifuged at 14,000 rpm for 10 min to remove any precipitate, and protein concentration was re-measured before conducting inhibition assays. […]
where v is the experimentally determined reaction velocity, v0 is the uninhibited activity, E is enzyme concentration, I is inhibitor concentration, K is the apparent inhibition constant (Ki^(app)) and h is the Hill coefficient. […]

B1: N-TIMP-3: N-terminal inhibitory domain of TIMP-3 (residues 1 to 121), C-terminally His-tagged, wild-type (protein)
chain: CTCSPSHPQDAFCNSDIVIRAKVVGKKLVKEGPFGTLVYTIKQMKMYRGFTKMPHVQYIHTEASESLCGLKLEVNKYQYLLTGRVYDGKMYTGLCNFVERWDQLTLSQRKGLNYRYHLGCN
Release of aggrecanase-generated aggrecan fragments ([1]; 0.05 μM): partially inhibited | Release of aggrecanase-generated aggrecan fragments ([1]; 0.1 μM): completely blocked | Inhibition of IL-1α-stimulated GAG release [2]: significantly inhibited | Ki [3]: 0.8 ± 0.03 nM

B2: -1A: N-TIMP-3 mutant with the addition of an N-terminal alanine extension (-1A) (protein)
chain: ACTCSPSHPQDAFCNSDIVIRAKVVGKKLVKEGPFGTLVYTIKQMKMYRGFTKMPHVQYIHTEASESLCGLKLEVNKYQYLLTGRVYDGKMYTGLCNFVERWDQLTLSQRKGLNYRYHLGCN
Ki [4]: 941 ± 206 nM
